36 substances from patent US11306156 can be followed below.

Assay [1] addresses tissue factor (TF) antigen (UniProt P13726). Description: SPR (ProteOn), Fab captured on anti-penta-His surface, TF injected; reference wild-type D3H44 Fab.
Assay [2] has the same target. Description: SPR (ProteOn), Fab captured on anti-penta-His surface, TF injected, 1:1 fit.
Assay [3] has the same target. Put plainly: SPR, Fab captured on anti-penta-His surface, TF as analyte, 1:1 fit; Fab batch C; against wild-type D3H44 Fab.
Assay [4] has the same target. Description: SPR, Fab captured on anti-penta-His surface, TF as analyte, 1:1 fit; Fab batch C.
Assay [5] has the same target. Description: SPR (ProteOn XPR36), Fab captured on anti-penta-His, TF injected, 1:1 fit; batch C (+).
The target is the same in assay [6]. Description: SPR, against wild-type D3H44 Fab; batch C (+).
Assay [7] has the same target. Put plainly: SPR (ProteOn XPR36), Fab captured on anti-penta His surface, TF injected as analyte, 1:1 model.
For assay [8] the target is unchanged. Description: SPR, same assay; reference wild-type D3H44 Fab.
Assay [9] shares this target. Description: vs wild-type D3H44 Fab (KD 0.157 nM); SPR, Fab captured on anti-penta-His, TF as analyte.
Assay [10] has the same target. Put plainly: SPR, Fab captured on anti-penta-His, TF as analyte, 1:1 fit.

pKd: −log10 of the molar value.

Chain of tissue factor (TF) antigen (P13726 33-251 limits assumed): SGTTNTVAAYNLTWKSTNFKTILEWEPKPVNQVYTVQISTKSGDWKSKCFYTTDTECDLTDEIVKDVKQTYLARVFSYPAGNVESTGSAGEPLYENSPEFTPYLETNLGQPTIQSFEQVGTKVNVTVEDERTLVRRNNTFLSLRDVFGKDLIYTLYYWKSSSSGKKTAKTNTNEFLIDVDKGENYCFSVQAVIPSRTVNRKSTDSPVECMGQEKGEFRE

In assay [1], “D3H44 H1L1 Fab heterodimer of LCCA Set # 9344 (H1 L124R_A125R; L1 V133G_S176D_T178D)” displayed a Change in median values of KD of h1l1 Fab heterodimer compared to wild type (-(log(KD design)-log(KD wt))) of -0.23. The pKd in [2] was 9.57.
In turn, “D3H44 H1L1 Fab heterodimer of LCCA Set # 9362 (H1 L124R_D146N_Q179K; L1 V133G_S176D_T178E_T180E)” returned a Change in median values of KD of h1l1 Fab heterodimer compared to wild type (-(log(KD design)-log(KD wt))) in [1] of -0.01. The substance further had a pKd in assay [2] of 9.80.
The like results for “D3H44 H1L1 Fab heterodimer of LCCA Set # 9538 (H1 L124R_S186R; L1 V133G_S176D_T178D_T180E)” were, in that order, -0.04 and 9.77.
Substance “D3H44 H1L1 Fab heterodimer of LCCA Set # 9644 (H1 L143E_K145T_Q179D_S188L; L1 Q124R_Q160K_T178R)” yielded a change in median KD compared to wild type, -(log(KD design)-log(KD wt)) in assay [3] of 0.09. The substance further gave a pKd in [4] of 9.89.
Taken in the same sequence, the figures for “D3H44 H1L1 Fab heterodimer of LCCA Set # 9784 (H1 Q179K; L1 Q124E_T178E)” were 0.05 and 9.85.
In assay [3], “D3H44 H1L1 Fab heterodimer of LCCA Set # 9809 (H1 Q179R; L1 Q124E_T178E)” registered a change in median KD compared to wild type, -(log(KD design)-log(KD wt)) of 0.04. Also, the negative-log Kd (pKd) in [4] was 9.85.
The like results for “D3H44 H1L1 Fab heterodimer of LCCA Set # 9831 (H1 S186K; L1 Q124E_Q160E_T180E)” were, in that order, 0.09 and 9.89.
In assay [3], “D3H44 H1L1 Fab heterodimer of LCCA Set # 9901 (H1 S186R; L1 Q124E_T180E)” showed a change in median KD compared to wild type, -(log(KD design)-log(KD wt)) of 0.36. Also, the pKd in assay [4] was 10.15.
For the substance “D3H44 H1L1 Fab heterodimer of LCCA Set # 9987 (H1 L143E_K145T; L1 Q124R_T178R)”, the change in median KD compared to wild type, -(log(KD design)-log(KD wt)) in [3] was found to be 0.15. In assay [4], this substance showed a negative logarithm of the Kd (pKd) of 9.96.
With “D3H44 H1L1 Fab heterodimer of LCCA Sets # 9176, 9178 and 9179 (H1 L124E_L143D_K145M; L1 Q124K_V133G_S176R_T178K)”, the Change in median values of KD of h1l1 Fab heterodimer compared to wild type (-(log(KD design)-log(KD wt))) in [1] was -0.15. Moreover, the pKd in assay [2] was 9.66.
For “D3H44 H1L1 Fab heterodimer of LCCA Sets # 9237, 9236, 9234, 9239, 9243 and 9240 (H1 L124E_L143D_K145T; L1 V133G_S176R_T178K)”, the Change in median values of KD of h1l1 Fab heterodimer compared to wild type (-(log(KD design)-log(KD wt))) in assay [1] was -0.15. The pKd in assay [2] is 9.66.
The like results for “D3H44 H1L1 Fab heterodimer of LCCA Sets # 9349 and 9348 (H1 L124R_A139G_V190A; L1 V133G_L135W_S176D)” were, in that order, 0.03 and 9.82.
The like results for “D3H44 H1L1 Fab heterodimer of LCCA Sets # 9505 and 9503 (H1 L124R_S186R; L1 Q124E_V133G_S176D_T178D_T180E)” were, in that order, -0.21 and 9.59.
As for “D3H44 H1L1 Fab heterodimer of LCCA Sets # 9521 and 9520 (H1 L124R_S186R; L1 V133G_S176D_T178D)”, in assay [1], the Change in median values of KD of h1l1 Fab heterodimer compared to wild type (-(log(KD design)-log(KD wt))) is -0.1. Besides, the pKd in assay [2] is 9.70.
In assay [5], “H1L1 Fab heterodimer of LCCA Set # 9779 and 9780 (D3H44 Fab; H1 Q179K, L1 Q124E_S131T_T178Y_T180E)” showed a pKd of 9.80. The same substance had a Change in median values of KD of h1l1 Fab heterodimer compared to wild type (-(log(KD design)-log(KD wt))) in [6] of -0.01.
Taken in the same sequence, the figures for “H1L1 Fab heterodimer of LCCA Set # 9781 and 9782 (D3H44 Fab; H1 Q179K, L1 Q124E_S176L_T180E)” were 10.10 and 0.28.
Taken in the same sequence, the figures for “H1L1 Fab heterodimer of LCCA Set # 9803 and 9804 (D3H44 Fab; H1 Q179R, L1 Q124E_S131T_T178F_T180E)” were 9.96 and 0.14.
In [5], “H1L1 Fab heterodimer of LCCA Set # 9805 and 9806 (D3H44 Fab; H1 Q179R, L1 Q124E_S131T_T178Y_T180E)” had a pKd of 9.89. For the same substance, the Change in median values of KD of h1l1 Fab heterodimer compared to wild type (-(log(KD design)-log(KD wt))) in assay [6] was determined as 0.07.
Taken in the same sequence, the figures for “H1L1 Fab heterodimer of LCCA Set # 9843 and 9844 (D3H44 Fab; H1 S186K, L1 Q124E_S131T_T178F_T180E)” were 9.77 and -0.03.
Turning to “H1L1 Fab heterodimer of LCCA Set # 9845 and 9846 (D3H44 Fab; H1 S186K, L1 Q124E_S131T_T178Y_T180E)”, in assay [5], the pKd was 9.89. In assay [6], this substance came in with a Change in median values of KD of h1l1 Fab heterodimer compared to wild type (-(log(KD design)-log(KD wt))) of 0.09.
Turning to “H1L1 Fab heterodimer of LCCA Set # 9906 (D3H44 Fab; H1 S188G, L1 S176L)”, the pKd in [5] was 9.96. Besides, the Change in median values of KD of h1l1 Fab heterodimer compared to wild type (-(log(KD design)-log(KD wt))) in assay [6] stood at 0.14.
Substance “H1L1 Fab heterodimer of LCCA Set # 9914 (D3H44 Fab; H1 S188L_V190F, L1 WT)” gave a pKd in [5] of 9.82. Moreover, in assay [6], the Change in median values of KD of h1l1 Fab heterodimer compared to wild type (-(log(KD design)-log(KD wt))) was determined as 0.01.
Take “H1L1 Fab heterodimer of LCCA set 9214 (D3H44 Fab, H1 L124E_L143D_K145T, L1 Q124K_V133G_S176R_T178K)”: the pKd in assay [7] is 9.72. This substance yielded a change in median KD of H1L1 Fab heterodimer compared to wild type (-(log(KD design)-log(KD wt))) in [8] of -0.08.
Taken in the same sequence, the figures for “H1L1 Fab heterodimer of LCCA set 9225 (D3H44 Fab, H1 L124E_L143D_K145T, L1 Q124K_V133G_S176R_T178R)” were 9.80 and -0.02.
“H1L1 Fab heterodimer of LCCA set 9260 (D3H44 Fab, H1 L124E_L143E_K145M, L1 Q124K_V133G_S176R_T178K)”: in [7], the pKd is 9.62. In addition, in assay [8], the change in median KD of H1L1 Fab heterodimer compared to wild type (-(log(KD design)-log(KD wt))) was -0.19.
The substance “H1L1 Fab heterodimer of LCCA set 9269 (D3H44 Fab, H1 L124E_L143E_K145M, L1 Q124K_V133G_S176R_T178R)” had a pKd in [7] of 9.51. In addition, the change in median KD of H1L1 Fab heterodimer compared to wild type (-(log(KD design)-log(KD wt))) in assay [8] was -0.29.
The like results for “H1L1 Fab heterodimer of LCCA set 9351 (D3H44 Fab, H1 L124R_D146N_Q179K, L1 Q124E_V133G_S176D_T178E_T180E)” were, in that order, 9.70 and -0.1.
The like results for “H1L1 Fab heterodimer of LCCA set 9354 (D3H44 Fab, H1 L124R_D146N_Q179K, L1 V133G_Q160E_S176D_T180E)” were, in that order, 9.77 and -0.04.
With “H1L1 Fab heterodimer of LCCA set 9358 (D3H44 Fab, H1 L124R_D146N_Q179K, L1 V133G_S176D_T178E)”, the pKd in [7] was 9.74. Besides, in assay [8], the change in median KD of H1L1 Fab heterodimer compared to wild type (-(log(KD design)-log(KD wt))) is -0.07.
Taken in the same sequence, the figures for “H1L1 Fab heterodimer of LCCA set 9359 (D3H44 Fab, H1 L124R_D146N_Q179K, L1 V133G_S176D_T178E_T180E)” were 9.80 and -0.01.
Taken in the same sequence, the figures for “H1L1 Fab heterodimer of LCCA set 9516 (D3H44 Fab, H1 L124R_S186R, L1 Q124E_V133G_S176D_T178D_T180E)” were 9.59 and -0.21.
On to “H1L1 Fab heterodimer of LCCA set 9746 (D3H44 Fab, H1 L45P_K145T_Q179E, L1 P44F_S131K)”, for which the change in median KD compared to wild type, -(log(KD design)-log(KD wt)) in assay [9] was -0.35. The substance further had a pKd in assay [10] of 9.46.
For the substance “H1L1 Fab heterodimer of LCCA set 10552 (D3H44 Fab, H1 L45P_L143E_K145T_H172R, L1 P44F_Q124R_Q160K_T178R)”, the change in median KD compared to wild type, -(log(KD design)-log(KD wt)) in assay [9] is -0.27. The same substance showed a pKd in assay [10] of 9.54.
Taken in the same sequence, the figures for “H1L1 Fab heterodimer of LCCA sets 9546 and 9547 (D3H44 Fab, H1 L124R_S186R, L1 V133G_S176D_T180E)” were -0.18 and 9.62.
The like results for “H1L1 Fab heterodimer of LCCA sets 9667, 9671, 9675, 9679 and 9682 (D3H44 Fab, H1 L143E_K145T_Q179E, L1 Q124R_T178R)” were, in that order, -0.23 and 9.57.
In assay [9], “H1L1 Fab heterodimer of LCCA sets 9735 and 9737 (D3H44 Fab, H1 L143R, L1 Q124E_V133E)” gave a change in median KD compared to wild type, -(log(KD design)-log(KD wt)) of -0.09. Moreover, the pKd in [10] is 9.70.
